Test results taken from paper PMC2779421.
Values joined by “and” are separate entries in the source; they are usually repeats but may differ in a detail not shown here. Identical values can stand only once.

Experiments:
[1] = target: β-Amyloid peptide Aβ-(1–40); assay: continuous-wave EPR
[2] = target: β-Amyloid peptide Aβ-(1–40); assay: filtration

% of the slow component (larger aggregates) in the total spectrum, 5–6 h [1]: 34%
stoichiometry N [1]: 8 molecules and 15 molecules
% of the slow component (larger aggregates) in the total spectrum, retentate [2]: 34%
Substance: Spin-labeled Cys-(Aβ) (40 residue Aβ peptide variant containing an N-terminal cysteine, labeled with MTSL)
